The target of the data set is T1, RNase H (UniProt P0A7Y4).
T1 sequence: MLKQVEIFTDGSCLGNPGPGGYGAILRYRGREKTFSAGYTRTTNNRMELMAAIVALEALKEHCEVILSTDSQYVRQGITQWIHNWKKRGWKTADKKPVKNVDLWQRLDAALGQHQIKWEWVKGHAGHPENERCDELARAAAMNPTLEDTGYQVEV
Put plainly: flow.

Here are results for two sequences from US20130231261.

For “AAGCCAGCTGCTTCCATTGGTGGGTCGTTTTTGCTGTCACCAGCAACATTGCCTCGTCTA [EF1a capture oligo without RNA]”, the binding (fluorescence units) (no RNA, equivalent to bead background of 44 units) was found to be 47. Turning to “AAGCCAGCTGCTTCCATTGGTGGGTCGTTTTTGCTGTCACCAGCAACATTGCCTCGTCTA [EF1a capture oligo:EF1a RNA hybrid]”, the binding (fluorescence units) (bead fluorescence 4x over no-RNA control, released to 45 units on adding MgCl2) stood at 196.
